{
  "source": "patent US20040110161",
  "about": "“Method for detecting mutations in nucleotide sequences” (published 2004)",
  "key": {"[1]": {"biological_target": "T1, MutS (Cy5-labeled) (Escherichia coli, UniProt P23909 P23909:1-853)", "T1 sequence": "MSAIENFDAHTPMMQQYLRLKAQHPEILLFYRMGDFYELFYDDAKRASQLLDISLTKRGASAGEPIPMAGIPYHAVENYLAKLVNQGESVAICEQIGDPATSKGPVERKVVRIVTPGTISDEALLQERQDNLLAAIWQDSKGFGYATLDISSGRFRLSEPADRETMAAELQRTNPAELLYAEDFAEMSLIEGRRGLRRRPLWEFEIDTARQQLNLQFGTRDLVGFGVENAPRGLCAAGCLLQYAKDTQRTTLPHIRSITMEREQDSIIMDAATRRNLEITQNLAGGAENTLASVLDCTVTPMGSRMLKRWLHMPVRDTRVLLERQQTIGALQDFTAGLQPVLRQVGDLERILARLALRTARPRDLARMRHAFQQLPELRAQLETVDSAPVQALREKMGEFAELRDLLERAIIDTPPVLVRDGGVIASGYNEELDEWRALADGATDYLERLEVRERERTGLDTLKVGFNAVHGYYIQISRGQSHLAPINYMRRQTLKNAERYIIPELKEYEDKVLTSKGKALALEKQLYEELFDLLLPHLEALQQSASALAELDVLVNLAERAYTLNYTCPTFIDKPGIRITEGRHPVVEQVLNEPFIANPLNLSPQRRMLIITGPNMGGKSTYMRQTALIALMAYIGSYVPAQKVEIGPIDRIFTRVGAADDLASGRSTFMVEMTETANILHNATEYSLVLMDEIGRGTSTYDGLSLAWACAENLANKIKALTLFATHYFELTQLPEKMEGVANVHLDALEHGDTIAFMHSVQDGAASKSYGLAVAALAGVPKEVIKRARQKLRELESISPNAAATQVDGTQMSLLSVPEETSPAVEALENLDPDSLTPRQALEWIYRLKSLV", "experiment": "EMSA; 150 mM KCl, 10 mM MgCl2; labeled and unlabeled", "conditions": "tags: Cy5 nonspecific amine label; also Gene Check unlabeled in EMSA; label: 5'-biotin (SPR); 5'-32P (EMSA); G/T mismatch", "description": "Subsequently, the band shift method was used to check whether the Cy™5-conjugated mutS proteins were functionally active, i.e. whether they were still able to bind specifically to base mispairings. For this, heteroduplexes were generated by hybridizing the oligonucleotides […] (Seq. ID No. 6) and “GT” (Seq. ID No. 7), respectively, with the “sense” oligonucleotide (Seq. ID No. 11) by heating for 5 minutes at 95° C. in […] tris-HCl, 100 mM KCl, 5 mM MgCl₂, followed by cooling slowly down to room temperature. […] Using T₄ polynucleotide kinase (New England Biolabs, Frankfurt), 10 pmol each of the two heteroduplexes which wer produced using the “AT” and “GT” oligonucleotides were radioactively labeled, in accordance with the manufacturer's instructions, with 150 μCi of ³²P-ATP at their 5′ ends and purified through Sephadex G50 gel filtration columns (Pharmacia, Uppsala, Sweden) in accordance with the manufacturer's instructions. […] After the run, the gels were dried and analyzed by autoradiography (FIG. 6)."}, "[2]": {"biological_target": "T1, MutS (Cy5-labeled)", "experiment": "hydrogel chip fluorescence", "conditions": "tags: Cy5 nonspecific amine label, also Gene Check unlabeled in EMSA", "description": "(§1) The biotinylated “sense” oligonucleotide (Seq. ID No. 10) was electronically addressed to the individual positions on the hydrogel chip, for 60 sec. and at a voltage of 2.1 V, in the Nanogen workstation loading appliance. The hybridization with the second-strand AT (Seq. ID No. 12), GT (Seq. ID No. 13), AA (Seq. ID No. 14), AG (Seq. ID No. 15), CA (Seq. ID No. 16), CC (Seq. ID No. 17), CT (Seq. ID No. 18), GG (Seq. ID No. 19), TT (Seq. ID No. 20), ins+1T (Seq. ID No. 21), ins+2T (Seq. ID No. 22) and ins+3T (Seq. ID No. 23) oligonucleotides was carried out for 120 sec. at 2.1 V. The loading scheme is shown in Table 45; the name of each second-strand oligonucleotide indicates the mispairing or insertion (“ins”) which is formed on hybridization.\n(§2) After the loading, the chips were taken out of the loading appliance, filled with 1 ml of blocking buffer and incubated at room temperature for 60 min in order to saturate nonspecific protein-binding sites. The binding of E.coli mutS (ChipA), MBP-MutS (ChipB), Thermus aquaticus mutS (ChipC) and Thermus thermophilus mutS (Chip D) to the resulting DNA double strands was then tested. For this, the chips were incubated for 60 min with in each case 2-3 μg of the Cy™5-labeled mutS proteins in 100 μl of incubation buffer. The chips which were incubated with E.coli mutS and MBP mutS were incubated at room temperature while the chips which were incubated with Thermus aquaticus mutS and Thermus thermophilus mutS were incubated at 37° C. After this incubation, the chips were washed by hand with 10 ml of incubation buffer and inserted into the Nanogen reader. In the reader, the chips were washed, at a temperature of 37° C. (E.coli mutS and MBP-mutS) or 50° C. (Thermus aquaticus mutS and Thermus thermophilus mutS), 70-80× with in each case 0.25 ml of washing buffer.\n(§3) Finally, the Cy™3 and Cy™5 fluorescence intensities at the individual positions on the chips were measured in the Nanogen reader using the following instrument settings: high sensitivity (“high gain”) in the case of Cy™5, low sensitivity (“low gain”) in the case of CY™3; 256 μs integration time. Care was taken to ensure that the Cy™3 fluorescence intensity was distributed homogeneously over the chip surface."}, "[3]": {"biological_target": "T2, MBP-MutS fusion (Cy5-labeled) (Escherichia coli, UniProt P23909 P23909:1-853)", "T2 chain": "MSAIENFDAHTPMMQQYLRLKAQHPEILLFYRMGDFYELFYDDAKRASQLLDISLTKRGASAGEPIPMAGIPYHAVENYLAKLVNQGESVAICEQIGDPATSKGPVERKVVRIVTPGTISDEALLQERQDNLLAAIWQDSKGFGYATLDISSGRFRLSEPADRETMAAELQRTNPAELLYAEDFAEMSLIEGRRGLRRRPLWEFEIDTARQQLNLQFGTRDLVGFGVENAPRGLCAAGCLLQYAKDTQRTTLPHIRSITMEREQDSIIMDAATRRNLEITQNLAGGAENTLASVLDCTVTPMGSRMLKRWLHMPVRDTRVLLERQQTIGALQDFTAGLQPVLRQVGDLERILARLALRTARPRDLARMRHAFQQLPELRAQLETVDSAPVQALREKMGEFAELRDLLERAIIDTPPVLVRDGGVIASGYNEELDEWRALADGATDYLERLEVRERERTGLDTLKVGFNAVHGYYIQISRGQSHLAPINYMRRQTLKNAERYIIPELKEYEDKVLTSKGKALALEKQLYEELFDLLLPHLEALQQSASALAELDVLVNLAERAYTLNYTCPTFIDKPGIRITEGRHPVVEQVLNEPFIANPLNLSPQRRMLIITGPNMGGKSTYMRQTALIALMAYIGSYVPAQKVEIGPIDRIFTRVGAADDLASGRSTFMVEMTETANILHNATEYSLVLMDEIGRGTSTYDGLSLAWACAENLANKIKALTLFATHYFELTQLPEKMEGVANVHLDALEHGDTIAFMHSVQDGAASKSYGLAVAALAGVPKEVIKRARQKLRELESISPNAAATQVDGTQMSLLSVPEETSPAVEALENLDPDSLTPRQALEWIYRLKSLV", "experiment": "hydrogel chip fluorescence", "conditions": "label: 5'-biotin, 5'-Cy3", "description": "as §1, §2, §3"}, "[4]": {"biological_target": "T1, MutS (Cy5-labeled)", "experiment": "impedance spectroscopy; 100 mM KCl, 5 mM MgCl2", "conditions": "tags: Cy5 nonspecific amine label; also Gene Check unlabeled in EMSA; hairpin, two G/T mismatches", "description": "(§4) The individual electrodes were measured in aqueous K₃/K₄Fe(CN)₆ solution (Darmstadt, Germany) (20 mM in 20 mM tris buffer, 100 mM KCl, 5 mM MgCl), in the frequency range from 100 mHz to 1 MHz […], before and after incubating with mutS. The measured values are shown in the Bode diagram. The measurements were carried out, at room temperature, on an IM 6e impedance measuring desk supplied by Zahner Messtechnik.\n(§5) The advantage of this method is that it is possible to carry out measurements on the samples without destroying them and without using labels. The mutation-recognizing E. coli mutS protein was used as a model system for the binding of mispairing-recognizing substrates, while Seq. ID Nos. 50 and 51 were used as duplex-forming oligonucleotides. […] The results of the measurement are depicted in FIGS. 29A and 29B."}, "[5]": {"biological_target": "T1, MutS (Cy5-labeled)", "experiment": "impedance spectroscopy; no or only very slight binding", "conditions": "tags: Cy5 nonspecific amine label; also Gene Check unlabeled in EMSA; hairpin", "description": "as §4, §5"}},
  "data": [
    {"binder": "sense(36)/GT (dsDNA) DNA 1: AAGCATACGGAAGTTAAAGTGCGGATCATCTCTAGC DNA 2: TGGCTAGAGATGATCCGCGCTTTAACTTCCGTATGC", "values": [
      {"measurement": "binding result", "setting": "[1]", "value": "binds"}
    ]},
    {"binder": "sense/CC mismatch (dsDNA) DNA 1: AAGCATACGGAAGTTAAAGTGCGGATCATCTCTAGCCA DNA 2: TGGCTAGAGATGATCCCCACTTTAACTTCCGTATGC", "values": [
      {"measurement": "binding signal", "setting": "[2]; label: 5'-biotin, 5'-Cy3, C/C mismatch", "value": 1.37, "unit": "fold vs AT"}
    ]},
    {"binder": "sense/TT mismatch (dsDNA) DNA 1: AAGCATACGGAAGTTAAAGTGCGGATCATCTCTAGCCA DNA 2: TGGCTAGAGATGATCCGCTCTTTAACTTCCGTATGC", "values": [
      {"measurement": "binding signal", "setting": "[3]; T/T mismatch", "value": 1.94, "unit": "fold vs AT"},
      {"measurement": "binding signal", "setting": "[2]; label: 5'-biotin, 5'-Cy3, T/T mismatch", "value": 1.82, "unit": "fold vs AT"}
    ]},
    {"binder": "sense/AC mismatch (dsDNA) DNA 1: AAGCATACGGAAGTTAAAGTGCGGATCATCTCTAGCCA DNA 2: TGGCTAGAGATGATCCGCACCTTAACTTCCGTATGC", "values": [
      {"measurement": "binding signal", "setting": "[3]; A/C mismatch", "value": 2.53, "unit": "fold vs AT"},
      {"measurement": "binding signal", "setting": "[2]; label: 5'-biotin, 5'-Cy3, A/C mismatch", "value": 5.73, "unit": "fold vs AT"}
    ]},
    {"binder": "sense/AG mismatch (dsDNA) DNA 1: AAGCATACGGAAGTTAAAGTGCGGATCATCTCTAGCCA DNA 2: TGGCTAGAGATGATCCGCAATTTAACTTCCGTATGC", "values": [
      {"measurement": "binding signal", "setting": "[3]; A/G mismatch", "value": 2.72, "unit": "fold vs AT"},
      {"measurement": "binding signal", "setting": "[2]; label: 5'-biotin, 5'-Cy3, A/G mismatch", "value": 3.34, "unit": "fold vs AT"}
    ]},
    {"binder": "sense/CT mismatch (dsDNA) DNA 1: AAGCATACGGAAGTTAAAGTGCGGATCATCTCTAGCCA DNA 2: TGGCTAGAGATGATCCGCCCTTTAACTTCCGTATGC", "values": [
      {"measurement": "binding signal", "setting": "[3]; C/T mismatch", "value": 3.56, "unit": "fold vs AT"},
      {"measurement": "binding signal", "setting": "[2]; label: 5'-biotin, 5'-Cy3, C/T mismatch", "value": 6.24, "unit": "fold vs AT"}
    ]},
    {"binder": "sense/GT mismatch (dsDNA) DNA 1: AAGCATACGGAAGTTAAAGTGCGGATCATCTCTAGCCA DNA 2: TGGCTAGAGATGATCCGCGCTTTAACTTCCGTATGC", "values": [
      {"measurement": "binding signal", "setting": "[3]; G/T mismatch", "value": 22.3, "unit": "fold vs AT"},
      {"measurement": "binding signal", "setting": "[2]; label: 5'-biotin, 5'-Cy3, G/T mismatch", "value": 29, "unit": "fold vs AT"}
    ]},
    {"binder": "sense/GG mismatch (dsDNA) DNA 1: AAGCATACGGAAGTTAAAGTGCGGATCATCTCTAGCCA DNA 2: TGGCTAGAGATGATCCGCAGTTTAACTTCCGTATGC", "values": [
      {"measurement": "binding signal", "setting": "[3]; G/G mismatch", "value": 6.5, "unit": "fold vs AT"},
      {"measurement": "binding signal", "setting": "[2]; label: 5'-biotin, 5'-Cy3, G/G mismatch", "value": 18.4, "unit": "fold vs AT"}
    ]},
    {"binder": "sense/AA mismatch (dsDNA) DNA 1: AAGCATACGGAAGTTAAAGTGCGGATCATCTCTAGCCA DNA 2: TGGCTAGAGATGATCCGCACATTAACTTCCGTATGC", "values": [
      {"measurement": "binding signal", "setting": "[3]; A/A mismatch", "value": 4.03, "unit": "fold vs AT"},
      {"measurement": "binding signal", "setting": "[2]; label: 5'-biotin, 5'-Cy3, A/A mismatch", "value": 13, "unit": "fold vs AT"}
    ]},
    {"binder": "sense/AT perfect duplex (dsDNA) DNA 1: AAGCATACGGAAGTTAAAGTGCGGATCATCTCTAGCCA DNA 2: TGGCTAGAGATGATCCGCACTTTAACTTCCGTATGC", "values": [
      {"measurement": "binding signal", "setting": "[2]; label: 5'-biotin sense, 5'-Cy3 AT", "value": 1, "unit": "fold vs AT"}
    ]},
    {"binder": "ATTCGATCGGGGCGGGGCGAGCTTTTTGCTCGCCTTGCCCCGATCGAAT (structured_DNA, 5'-SH, amino modifier X in loop)", "note": "[hairpin with two GT mispairings]", "values": [
      {"measurement": "binding result", "setting": "[4]", "value": "binds"}
    ]},
    {"binder": "ATTCGATCGGGGCGGGGCGAGCTTTTGCTCGCCCCGCCCCGATCGAAT (structured_DNA, 5'-SH, amino modifier X in loop)", "note": "[hairpin perfectly paired]", "values": [
      {"measurement": "binding result", "setting": "[5]", "value": "no binding"}
    ]}
  ]
}
